Experimental data reported in article PMC5884298.

Molecular target: thrombin (UniProt P00734;P00734 328-363;364-622)
Experiment: SERS mapping on gold nanopillars; thrombin 0.0873-87.3 nM; complex bands 822, 1140, 1558 cm-1; no Kd given; Thiolated aptamer on gold-coated Si nanopillars, MCH passivation (stated for quadruplex control); PBS pH 7.4 listed; thrombin incubation buffer and temperature

GGTTGGTGTGGTTGG (structured_DNA, 5'-HS-(CH2)6 thiol linker (printed HS-(CH2)5-CH2-D/)) [TBA15 (thiolated thrombin-binding aptamer)]
binding result: binds
